Data taken from the nanobody polyreactivity screen of Harvey et al. (2022).

Test: yeast display, Sf9 membrane polyspecificity reagent, FACS + sequencing; frameworks hold sequencing errors
Method in brief: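 After 36–48 hours of galactose induction, yeast (Saccharomyces cerevisiae BJ5465) displaying a synthetic nanobody library were stained at 4 °C for 1 hour with 10% biotinylated, detergent-solubilized Sf9 membrane reagent. Streptavidin microbeads enriched the stained cells before FACS sorting into low and high (top ~1%) gates on anti-HA and streptavidin fluorescence. Each clone's polyreactivity label reflects its gate of origin.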

Sequence	polyreactivity (PSR sort gate)
QVQLVESGGGLVQAGGSLRLSCAASGFTFYSYAMGWYRQAPGKERELVAAISRSGGRTYYADSVKGRFTISRDNAKNTVYLQMNSLKPEDTAVYYCAAEAYGPYSYSYSPYGYYYWGQGTQVTVSS	high polyreactivity
QVQLVESGGGLVQAGGSLRLSCAPSGSIFLHYAMGRYRQAPGKERDLVAAISRSGGRTYYADSVKGRFTISRDNAKNTVYLQMNSLKPEDTAVYYCAARVPRYRKDSVWAYYYWGQGTQVTVSS	high polyreactivity
QVQLVESGGGLVQAGGSLRLSCAASGSLFGRYTMGWYRQATGKDREFVAAIDRVGITNYADSVKGRFTISRDNAKNTVYLQMNSLKPEDTAVYYCAADYGAIRPRDFIEVPGHYDYWGQGTQVTVSS	low polyreactivity
QVQLVESGGGLVQAGGSLRLSCAASGITLARNAMGWYRQAPGKERELVASITWSGGTTYYADSVKGRFTISRDNAKNTVYLQMNSLKPEDTAVYYCAASAKLHFYRTYRYNYWGQGTQVTVSS	high polyreactivity
QVQIEESGGGLVQAGGSHRLSCAASGSTSYWYAMGWSRQAPRKERELVAAISSDDSTNYADSVKGRFTISRDNAKNTVYLQMNSLKPEDTAVYYFNREHYLIRYDYWGQGTQVTVSS	low polyreactivity
QVQLVESGGGLVQAGGSLRLSCAASGITIRRYAMGWYIQAPGKERELVAAITTGGGGTYYADSVKGRFTISRDNAKNTVYLQMNSLKPEDTAVYYCAATYWRTYPSYYWGQGTQVTVSS	high polyreactivity
QVQLVESGGGLVQAGGSLRLSCAASGITFYGYAMGWYRQAPGKERELVARISRSGGSTYYADSVKGRFTISRDNAKNTVYLQMNSLKPEDTAVYYCAAGYGPSGYTRYYWGQGTQVTVSS	high polyreactivity
QVQLVESGGGLVQAGGSLRLSCAASGRIVRNAMGWYRQSPGKERELVAAISRSGGSTYYADSVKGRFTISRDNAKNTVYLQMNSLKPEDTAVYYCAKRSTSQSLQGEYWGQGTQVTVSS	high polyreactivity
QVQLVESGLGLVQAGGSLRLSCAASGFTFTGYAMGWYRQAPGKERELVAAITRGGGSTYYADSVKGRFTISRDNAKNTVYLQMNSLKPEDTAVYYCAAQRSRLIRISSPYYGHEYWVQGTQVTVSS	low polyreactivity
QVQLVESGGGLVQAGRSLRLSCAASGSIFAWYGMGWYRQAPGKERELFAAISTDGSTNYADSVKGRFTISRDNAKNSVYLQMISLKREDTAVYYCAKKSSLYYPERFDYWGQGTQGTVSS	low polyreactivity
QEQLVESGGGLVQAGGTLRLSSAASVNTISPNAMGWYRQPPGKERELVAAIDSRDGIRYYADSVKGRFTISRDNAKNTVYLQMNSLKPEDTAVYYCAPDEWYGESNYWGQGTQVTVSS	low polyreactivity
QVQLVESGGGLVQAGGSLRLSCAASGSIFASNAMGWYRQAPGKERELVAAITSSGRTKYADSVKGRFTISRDNAKNTVYFQMNSLKPEDTAVYYCAAVYYTYFGRYDYWGQGTQVTVSS	high polyreactivity
QVQLVESGGGLVQAGGSLRLSCAASGRTFTRYAMGLYRQAPGKERELVAGITGRAGSTYYADSVKGRFTISRDNAKNTVYLQMNSLKPEDTAVYYCAADAGYRRSSLYEYDYWGHGTQVTVSS	low polyreactivity
QVQLVESGGGLVQAGGSLRLSCAASGSIFSYYAMGWYRQAPGKERELVAAISKRGASTYYADSVKGRFTISRDIAKNTVYLQMNSLKPEDTAVYYCAGYRQGSAYDYWGQGTQVTVSS	high polyreactivity
QVQLVESGGGLVQAGGSLRLSCAASGRTLRRYAMGWYRQAPGKERELVAAITSGGTTNYADSVKGRFTISRDNAKNTVYLQMNSLKPEDTAVYYCNARKSSGLSSYDWYSWEYGYWGQGTQVTVSS	low polyreactivity
QVQLVESGGGLVQAGGSLRLSCAASGSILADYAMGWYRQAPGKERELVAGISSGGSTNYADSVKGRFTISRDNAKNTVYLQMNSLKPEDTAVYYCNADQDFLFIGYLFDYWGQGTQVTVSS	low polyreactivity
QVQLVESGGGLVQAGGSLRLSCAASGSTFYPYAMGWYRPAPGKERELVAAINWSGGTTYYADSVKGRFTISRDNAKNTVYLQMNSLKPVDTAVYYCAADGYPPGYGYWGQGTQVTVSS	low polyreactivity
QVQLVESGGGLVQAGGSLRLSCAASGNTSVPYAMGWYRQAPGKERELVARITWSTGRTYYADSVKGRFTISRDNAKNTVYLQMNSLKPEDTAVYYCATEALLPCSGGDYWGQGTQVTVSS	low polyreactivity
QFQLVESGGGLVQAGGSLRLSSAASGSIFYTNAMGWYRQAPGKEREFVAGITRRGTSTNYADSVKGRFTISRDNAKNSVYLQMNSLKPEVTAVYYCNARYYLYWGQGTQVTVSS	low polyreactivity
QVQLVESGGGLVQAGGSLRLSCAASGFTLGYNAMGWYRQAPGKERQLVAGITWSGGSTSYADSVKGRFTISRDNAKNTVYLQMNSLKPEDTAVYYCAKLRRYSGWLPWPYAYDYWGLGTQVTVSS	high polyreactivity
QVQLVESGGGIVKAGGSLGISCAASGRIFDYYDMLWYRQAPGKERELVAAITQSGGSTNYADSVKGRFTISRDNAKNTVYLQMNSLKPEDTAVYYCAGVGYYTKRRFGYWGQGTQVTVSS	high polyreactivity
QVQLVESGGGLVQAGGSLRLSCAATGIIFKRYTMGWYRQAPGKERELVATINSGTRTYADSVKGRFTISRDNAKNTVYLQMNSLKPEDTAVYYCARRGYYYDYWGLGTQVTVSS	high polyreactivity

Sequence	polyreactivity (PSR sort gate)
QVQLVESGGGLVQAGGSLRLSCAAYGSTFRYYTMGWYRQAPGKERELVAAISGSGGITYYADSLKGRFTISRDNAKNTVYLQMNSLKPEDTAVYYCAAESRYYPYWGQSVQYDYWGQGTQVTVSS	high polyreactivity
QLQLVESGGGLVQAGGSLRLSCAASGRTFYRNGKGWYIQAPGKERELVATISSGGITNYADSVKGRFTISRDNAKNTVYLQMNSLKPEDTAVYYCNAKKAYYGRGMNYWGQGTQVTVSS	low polyreactivity
QVQHVESGGGLVQAGGSLLLSCAASGSTFGFYTMGWYRQAPGKERELVAAISWSTGRTYYADSVKGRFTISRDNAKNTVYLQMNSLKPEDTAVYYCNADGYPEQVYYYSAFQGMDYWGQGTQVTVSS	low polyreactivity
QVQLVESGGGLVQAGGSLRLSCAASGRTFAIYAMGWYRQAPGKERELVAGITIRGGRTYYADSVKGRFTISRYIAKNTVYLQMNSLKPEDTAVYYCNARGWYEYGWGQGTQVTVSS	high polyreactivity
QVQLVESGGRLVQAGGSLRLSCAASGRIFLSYAMGWYRQAPGKERELVAAISRSGGRTYYADSVKGRFTISRDNAKNTVYLQMNSLKPEDTAVYYCNVVVYVLRHYLRYDYWGQGTQVTVSS	high polyreactivity
QVQLVESGGGLVQAGGSLRLSCAASGRTFYHYAMGLYRQAPGKERELVAALNRVGGTNYADSVKGRFTISRDNAKNTVYLQMNSLKPEDTAVYYCNADIVARSSYSTKYEEFYYWGLGTQVTVSS	low polyreactivity
QVQLVESGGGLVQAGGSLRLSCAASGITFAYYARGWYRQAPGKERELVAAITGDGGYTYYADSVKGRFTISRDNAKNTVYLQMNSLKPEDTAVYYCNAELSDYRYDWWDYDYWGQGTQVTVSS	high polyreactivity
QVQLVESGGGLVQAGGSLRLSCAASGITFGYYAMGWSRQAAGKEWELVAAISSGGGTYYADSVKGRFTISRDNAKNTVYLQMNSLKPEDTAVYYCNVLRLYPSMDYWGHGTQVTVSS	high polyreactivity
QVHLVESGGGLVQAGGSLRLSCAASGRTFPSYAMGWYRQAPGKERELVAAISSSGGSTYYADSVKGRFTISRDNAKNTVYLQMNSLKPEDTAVYYCAAATPSGYYYWGQGTQVTVSS	high polyreactivity
QVQLVESGGGLVQAGGSLRLSCAASGSIFGFYAMGWSRQAPGKERELVAAITSGARTTYADSVKGRFTISRDNAKNTVYLQMNSLKPEDTAVYYSNADTGLGSLDFDKRDYWGQGTQVTVSS	low polyreactivity
QVQLVESGGGLVQAGGSLRLSCAASGSTFAPNAMGWYRQAPGKEREFVASITWRGGSTYYADSVKGRFTISRDNAKNTVYLQMNSLKPEDTAVYYCANLKRGFYRLFGFRYDYWGQGTQVTVSS	low polyreactivity
QVQLVESGGGLVQAGGSLRLSCAATGRIFHRYAMGWYRQAPGKEREFVAAITYSTGTTYYADSVKGRFTISRDNAKNTVYLQMNSLKPEDTAVYYCAKVSRFWHKSWFAYGYDYWGQGTQVTVSS	low polyreactivity
QVQLVESGGGLVQAGGSLRLSCADSVFIFYLNAMGWYRQAPRKERELVATITNRGGSTYFADSVKGRFTISRDNAKNTVYLQMNSLKPEDTAVYYCAARTRERYSKPYFYRRFGYWGQGTQVTVSS	low polyreactivity
PVQLEESGGGLVQAGGSLRLSCPASGTSAYYARGWYRQAPGKERALVAGISIGGSTNYADSVKGRFTITRDNAKNTVYVQMTSLKPEDTAVAYCSVDGYVAFSPDRNNYWGQGTQVTVSS	low polyreactivity
QVQLVESGGGLVQAGGSLRLSCAASGSIFETYVMGWYRQAPGKERELVAAINSGGSTNYADSVKGRFTISRDNAKNTVYLQMNSLKPEDTAVYYCAAEWRGDRYRLYVVSWWYDYWGQGTQVTVSS	low polyreactivity
QVQLVESGGGLVQAGGSLRLSCPASGRTMVLNMGCYRHAPGKERELVATINSGGSTYYADSVKGRFTISRDNAKNTVYLQMNSLKPEDTAVYYCAVLSSDGKFDYWGQGTQVTVSS	low polyreactivity
QVQLVESGGGLVQAGGSLRLSCAASGITFAWYAMGWYRQAPGKEREFVAAITGSGGRTYYADSVKGRFTISRDIAKNTVYLQMNSLKPEDTAVYYCATASSVSGARYDYCGQGTQVTVSS	high polyreactivity
QVQLVESGGGLVQAGGSLRLSCAASGNNFVYNPMGWYRPAPGKERELVAAIDSGGSTNYADSVKGRFTISRDNAKNTVYLQMNSLKPDDTAVYYCAADYFSTYRTIYYYWGQGTQVTVSS	low polyreactivity
QVQLVESGGGLVQAGGSLRLSCAASGRIFRPNAMGWYRQAPGKERELVATITSDGSTKYADSVKGRFTISRDNAKNTVYLQMNSLKPEDTAVYYCAVRWARRYRYYYWGQGTQVTVSS	high polyreactivity
QVQLVESGGGLVQAGGSLRLSCAASGRISRRYAMGWYRQAPGKERELVAAITSGGRTYYADSVKGRFTISRDNAKNTVYLQMNSLKPEDTAVYYCAAAGYLPSTYWGQGTQVTVSS	high polyreactivity
QVQLVESGGGLVQAGGSLRLSFAASGSNFGPNGMGWYRQAPGKERELVARIDRIGGGTYYADSVKGRFTISRDNAKNNVYLKMNSLKPEETAVYYCAKSGSAYWHSGWSVGFDYWGQGTQVTLSS	low polyreactivity
